Reference: patent US20190071490A1, “Preventing Post-Ictal Headaches” (Beth Israel Deaconess Medical Center, Inc., priority 2017, published 2019)

T1: rat α-CGRP (Rattus norvegicus, UniProt P01256)
T1 construct: rat α (1-37); purchased GenScript Corporation or Global Peptide Services
T1 sequence (P01256 83-119 limits assumed): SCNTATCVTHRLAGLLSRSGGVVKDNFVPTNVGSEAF

T2: human α-CGRP (Homo sapiens, UniProt P06881)
T2 construct: 1-37 (WT); purchased GenScript Corporation or Global Peptide Services
T2 sequence (P06881 83-119 limits assumed): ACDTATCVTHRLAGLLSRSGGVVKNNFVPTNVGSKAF


Key:
rat α-CGRP = molecular target: T1, rat α-CGRP; test: Biacore SPR affinity of Fab fragments to N-biotinylated rat α-CGRP on SA chip; assay type: binding; details: 37° C., screening mode except underlined values
Procedure: (§1) Affinity determination of the Fabs. Affinities of the anti-CGRP monoclonal antibodies were determined at either 25° C. or 37° C. using the BIACORE3000™ surface plasmon resonance (SPR) system (Biacore, INC, Piscataway N.J.) with the manufacture's own running buffer, HBS-EP (10 mM HEPES pH 7.4, 150 mM NaCl, 3 mM EDTA, 0.005% v/v polysorbate P20). Affinity was determined by capturing N-terminally biotinylated CGRP peptides (custom ordered from GenScript Corporation, New Jersey or Global Peptide Services, Colorado) via pre-immobilized streptavidin on SA chip and measuring binding kinetics of antibody Fab titrated across the CGRP surface. Biotinylated CGRP was diluted into HBS-EP and injected over the chip at a concentration of less than 0.001 mg/ml. Using variable flow time across the individual chip channels, two ranges of antigen density were achieved: <50 response units (RU) for detailed kinetic studies and about 800 RU for concentration studies and screening. […] After each binding cycle, surfaces were regenerated with 25 mM NaOH in 25% v/v ethanol, which was tolerated over hundreds of cycles. Kinetic association rate (kon) and dissociation rate (koff) were obtained simultaneously by fitting the data to a 1:1 Langmuir binding model (Karlsson et al. (1994). Methods Enzymology 6. 99-110) using the BIAevaluation program. Global equilibrium dissociation constants (KD) or “affinities” were calculated from the ratio KD=koff/kon.
(§2) Biacore assay for affinity determination. […] All Biacore assays were conducted in HBS-EP running buffer (10 mM HEPES pH 7.4, 150 mM NaCl, 3 mM EDTA, 0.005% v/v polysorbate P20). CGRP surfaces were prepared by diluting the N-biotinylated CGRP to a concentration of less than 0.001 mg/mL into HBS-EP buffer and injecting it across the SA sensor chip using variable contact times. Low capacity surfaces, corresponding to capture levels <50 response units (RU) were used for high-resolution kinetic studies, whereas high capacity surfaces (about 800 RU of captured CGRP) were used for concentration studies, screening, and solution affinity determinations. […] Samples were typically injected for 1 minute at 100 μL/min and dissociation times of at least 10 minutes were allowed. After each binding cycle, surfaces were regenerated with 25 mM NaOH in 25% v/v ethanol, which was tolerated over hundreds of cycles. An entire titration series (typically generated in duplicate) was fit globally to a 1:1 Langmuir binding model using the BIAevaluation program. This returned a unique pair of association and dissociation kinetic rate constants (respectively, kon and koff) for each binding interaction, whose ratio gave the equilibrium dissociation constant (KD=koff/kon).
(§3) High-resolution analysis of binding interactions with extremely slow off rates. […] The protocol described above was used with the following modifications. The association rate constant (kon) was determined by injecting a 2-fold titration series (in duplicate) spanning 550 nM-1 nM for 30 seconds at 100 μL/min and allowing only a 30 second dissociation phase. The dissociation rate constant (koff) was determined by injecting three concentrations (high, medium, and low) of the same titration series in duplicate for 30 seconds and allowing a 2-hour dissociation phase. The affinity (KD) of each interaction was obtained by combining the kon and koff values obtained in both types of experiments, as shown in Table 4.

human α-CGRP = molecular target: T2, human α-CGRP; test: Biacore SPR affinity of Fab fragments to N-biotinylated human α-CGRP on SA chip; assay type: binding; details: 37° C., screening mode except underlined values
Procedure: as §1, §2, §3

α-rat koff (rat α-CGRP) [s⁻¹]	α-human koff (human α-CGRP) [s⁻¹]	Molecule
0.00294	0.000539	M46: G1 variant; L1 R28N; L2 G50A L56T; H2 E54K A57N S58E H61F; HC-FW3 L99T A100V (antibody, V domains shown) VH: EVQLVESGGGLVQPGGSLRLSCAASGFTFSNYWISWVRQAPGKGLEWVAEIRSKSDNEATFYAEAVKGRFTISRDNAKNSLYLQMNSLRAEDTAVYYCTVYFDYGLAIQNYWGQGTLVTVSS VL: EIVLTQSPATLSLSPGERATLSCKASKNVTTYVSWYQQKPGQAPRLLIYAASNRYTGIPARFSGSGSGTDFTLTISSLEPEDFAVYYCSQSYNYPYTFGQGTKLEIK
0.00118	0.000131	M51: G1 variant; L1 R28N; L2 L561; H2 E54K A57G; HC-FW3 L99T A100V (antibody, V domains shown) VH: EVQLVESGGGLVQPGGSLRLSCAASGFTFSNYWISWVRQAPGKGLEWVAEIRSKSDGSATHYAEAVKGRFTISRDNAKNSLYLQMNSLRAEDTAVYYCTVYFDYGLAIQNYWGQGTLVTVSS VL: EIVLTQSPATLSLSPGERATLSCKASKNVTTYVSWYQQKPGQAPRLLIYGASNRYIGIPARFSGSGSGTDFTLTISSLEPEDFAVYYCSQSYNYPYTFGQGTKLEIK
0.0053	0.000406	M50: G1 variant; L1 R28N; L2 G50A L56T; H2 E54K A57R; HC-FW3 L99T A100V (antibody, V domains shown) VH: EVQLVESGGGLVQPGGSLRLSCAASGFTFSNYWISWVRQAPGKGLEWVAEIRSKSDRSATHYAEAVKGRFTISRDNAKNSLYLQMNSLRAEDTAVYYCTVYFDYGLAIQNYWGQGTLVTVSS VL: EIVLTQSPATLSLSPGERATLSCKASKNVTTYVSWYQQKPGQAPRLLIYAASNRYTGIPARFSGSGSGTDFTLTISSLEPEDFAVYYCSQSYNYPYTFGQGTKLEIK
0.00229	0.000281	M52: G1 variant; L1 R28N; L2 L561; H2 E54K A57N S58A; HC-FW3 L99T A100V (antibody, V domains shown) VH: EVQLVESGGGLVQPGGSLRLSCAASGFTFSNYWISWVRQAPGKGLEWVAEIRSKSDNAATHYAEAVKGRFTISRDNAKNSLYLQMNSLRAEDTAVYYCTVYFDYGLAIQNYWGQGTLVTVSS VL: EIVLTQSPATLSLSPGERATLSCKASKNVTTYVSWYQQKPGQAPRLLIYGASNRYIGIPARFSGSGSGTDFTLTISSLEPEDFAVYYCSQSYNYPYTFGQGTKLEIK
0.00935	0.000479	M56: G1 variant; L1 R28N T30D; L2 L56S; H2 E54K A57N H61F; HC-FW3 L99T A100V (antibody, V domains shown) VH: EVQLVESGGGLVQPGGSLRLSCAASGFTFSNYWISWVRQAPGKGLEWVAEIRSKSDNSATFYAEAVKGRFTISRDNAKNSLYLQMNSLRAEDTAVYYCTVYFDYGLAIQNYWGQGTLVTVSS VL: EIVLTQSPATLSLSPGERATLSCKASKNVDTYVSWYQQKPGQAPRLLIYGASNRYSGIPARFSGSGSGTDFTLTISSLEPEDFAVYYCSQSYNYPYTFGQGTKLEIK
0.00585	0.000478	M55: G1 variant; L1 R28N T30A; L2 L56S; H2 E54K A57N S58E E64D; HC-FW3 L99T A100V (antibody, V domains shown) VH: EVQLVESGGGLVQPGGSLRLSCAASGFTFSNYWISWVRQAPGKGLEWVAEIRSKSDNEATHYADAVKGRFTISRDNAKNSLYLQMNSLRAEDTAVYYCTVYFDYGLAIQNYWGQGTLVTVSS VL: EIVLTQSPATLSLSPGERATLSCKASKNVATYVSWYQQKPGQAPRLLIYGASNRYSGIPARFSGSGSGTDFTLTISSLEPEDFAVYYCSQSYNYPYTFGQGTKLEIK
0.0343	0.000842	M48: G1 variant; L1 R28N; L2 G50A L56T; H2 E54K A57N S58L; HC-FW3 L99T A100V (antibody, V domains shown) VH: EVQLVESGGGLVQPGGSLRLSCAASGFTFSNYWISWVRQAPGKGLEWVAEIRSKSDNLATHYAEAVKGRFTISRDNAKNSLYLQMNSLRAEDTAVYYCTVYFDYGLAIQNYWGQGTLVTVSS VL: EIVLTQSPATLSLSPGERATLSCKASKNVTTYVSWYQQKPGQAPRLLIYAASNRYTGIPARFSGSGSGTDFTLTISSLEPEDFAVYYCSQSYNYPYTFGQGTKLEIK
0.00191	0.000374	M53: G1 variant; L1 R28N; L2 L561; H2 E54K A57N S58G; HC-FW3 L99T A100V (antibody, V domains shown) VH: EVQLVESGGGLVQPGGSLRLSCAASGFTFSNYWISWVRQAPGKGLEWVAEIRSKSDNGATHYAEAVKGRFTISRDNAKNSLYLQMNSLRAEDTAVYYCTVYFDYGLAIQNYWGQGTLVTVSS VL: EIVLTQSPATLSLSPGERATLSCKASKNVTTYVSWYQQKPGQAPRLLIYGASNRYIGIPARFSGSGSGTDFTLTISSLEPEDFAVYYCSQSYNYPYTFGQGTKLEIK
0.0014		M25: G1 variant; L1 R28N; HC-FW3 L99T A100V (antibody, V domains shown) VH: EVQLVESGGGLVQPGGSLRLSCAASGFTFSNYWISWVRQAPGKGLEWVAEIRSESDASATHYAEAVKGRFTISRDNAKNSLYLQMNSLRAEDTAVYYCTVYFDYGLAIQNYWGQGTLVTVSS VL: EIVLTQSPATLSLSPGERATLSCKASKNVTTYVSWYQQKPGQAPRLLIYGASNRYLGIPARFSGSGSGTDFTLTISSLEPEDFAVYYCSQSYNYPYTFGQGTKLEIK
0.00216	0.00179	M54: G1 variant; L1 R28N T30A; L2 G50A; H2 E54K A57N S58P; HC-FW3 L99T A100V (antibody, V domains shown) VH: EVQLVESGGGLVQPGGSLRLSCAASGFTFSNYWISWVRQAPGKGLEWVAEIRSKSDNPATHYAEAVKGRFTISRDNAKNSLYLQMNSLRAEDTAVYYCTVYFDYGLAIQNYWGQGTLVTVSS VL: EIVLTQSPATLSLSPGERATLSCKASKNVATYVSWYQQKPGQAPRLLIYAASNRYLGIPARFSGSGSGTDFTLTISSLEPEDFAVYYCSQSYNYPYTFGQGTKLEIK
0.00823	0.000332	M47: G1 variant; L1 R28N; L2 G50A L56T; H2 E54K A57N S58G; HC-FW3 L99T A100V (antibody, V domains shown) VH: EVQLVESGGGLVQPGGSLRLSCAASGFTFSNYWISWVRQAPGKGLEWVAEIRSKSDNGATHYAEAVKGRFTISRDNAKNSLYLQMNSLRAEDTAVYYCTVYFDYGLAIQNYWGQGTLVTVSS VL: EIVLTQSPATLSLSPGERATLSCKASKNVTTYVSWYQQKPGQAPRLLIYAASNRYTGIPARFSGSGSGTDFTLTISSLEPEDFAVYYCSQSYNYPYTFGQGTKLEIK
0.0148	0.000595	M49: G1 variant; L1 R28N; L2 G50A L56T; H2 E54K A57N S58Y H61F; HC-FW3 L99T A100V (antibody, V domains shown) VH: EVQLVESGGGLVQPGGSLRLSCAASGFTFSNYWISWVRQAPGKGLEWVAEIRSKSDNYATFYAEAVKGRFTISRDNAKNSLYLQMNSLRAEDTAVYYCTVYFDYGLAIQNYWGQGTLVTVSS VL: EIVLTQSPATLSLSPGERATLSCKASKNVTTYVSWYQQKPGQAPRLLIYAASNRYTGIPARFSGSGSGTDFTLTISSLEPEDFAVYYCSQSYNYPYTFGQGTKLEIK
